In this assay the target is NR1D1 (pCDNA-Nr1d1 expression vector).

In turn, r-h-apoA-IV registered a luciferase activity driven by the human G6pase promoter of 14.5%.

The values are drawn from patent US9730980B2.
